Substrate: CC(=O)C(=O)O
Experiment: purified protein
Assay type: biochemical, Sporolactobacillus inulinus
Settings: 0.4 mM NADH, pyruvate 0.05-40 mM

B1: D-LDH3 (Sporolactobacillus inulinus CASD) (protein)
chain: MKIIMFSVRDDEEAAIREWEKKTGVQVDINRLELDAETAQLTKGYDGIVIQQRSHISNPAVYETLQKNGLRQLTSRTAGYDMIDLEQASERGLVVTNVPAYSPNSVAELALTQTMRLIRNLPLFDARGAEQDFRWAGLMAREIRSLTVGIIGAGRIGGTVARLFKALGATVIANDIVERVELKDIVTYVSKEELLQAADVVTLHVPLMDSTTQLIDADALALMKNDAVLINASRGPVVDTDALIAALQNKQIAGAALDTLNGEEHFFNQDLCGKELPSEQLKVLRTLPNVLITPHIGFYTNKAVQNMVEISLNDVLAILKTGTSEHQLNKVAVEN
notes: N-terminal His-tag (pET-28a) removed by enterokinase; E. coli BL21(DE3); homodimer hypothesised from identical DLDH744
Km (pH 5.5, 30 °C): 3.1 ± 0.08 mM | Vmax (pH 5.5, 30 °C): 9.2 µmol/min/mg | kcat (pH 5.5, 30 °C): 10.7 ± 0.2 s⁻¹ | kcat/Km (pH 5.5, 30 °C): 3500 ± 200 M⁻¹ s⁻¹

B2: D-LDH2 (Sporolactobacillus inulinus CASD) (protein)
chain: MAFKIIAYGVEPYEEHLYSELNKYGFELTLVNDLLTADNGDLAKGHDGVLLFVNCLADRANLEKFNDYGINYVFTRTAGFNHIDLQAAADLGIKVARVPAYSPNAIAELAVYLGTSLLRHTVYTTARTSKLNFTVTETNFSHEVHKIKVGIVGTGHIGCVEAELYKGLGAKLLGYDIFQSDFAKKLVEFKELDELLAESDIVSLHLPYFPGKNENFVGEDFIGKMKDGAILINTARGELVDEAAVAKAIKSGKLEGFGADVLTDEARFFGKDFSDGTEFPDATIKELIELYPKVLITPHVAAMTDVAVSNMISTSYDNFNAAIKGESLGRAEVELPEPAKK
notes: N-terminal His-tag (pET-28a) removed by enterokinase; E. coli BL21(DE3)
Km (pH 7.5, 30 °C): 1.4 ± 0.09 mM | Vmax (pH 7.5, 30 °C): 38.1 µmol/min/mg | kcat (pH 7.5, 30 °C): 44.7 ± 0.3 s⁻¹ | kcat/Km (pH 7.5, 30 °C): 32000 ± 2000 M⁻¹ s⁻¹

B3: D-LDH1 (Sporolactobacillus inulinus CASD) (protein)
chain: MKLFMYGVQAHEKEIIRAWADAHAIDIETTADFLSEKTVDRAKDYDGICIQQPVPLGAAKLYATLKSYGIKQIATRTAGYDMIDLQEAEKNELIVTNVPAYSPYAVAELAVTQAMQLVRHVSQFQQRIAANDFRWDGLMSREIRSMTVGIVGTGRIGATAAQLFKGLGAKIIGFDQYPNDRLKDLIEYRSSLEDVLKEADIVSLHTPLFDSTRHMINARTLKLMKKSAYLINIARGALIDTEALIDALESGEIAGAALDTFENETVINKNLSGQSLNDPLLEKLIAMDQVLLTPHVGFFTETAIRNIVEGALNSVLEVLQTGTSKSRVKPAVTQ
notes: as for B2
Km (pH 6.0, 35 °C): 0.47 ± 0.04 mM | Vmax (pH 6.0, 35 °C): 62.7 µmol/min/mg | kcat (pH 6.0, 35 °C): 75.8 ± 0.3 s⁻¹ | kcat/Km (pH 6.0, 35 °C): 161000 ± 6000 M⁻¹ s⁻¹

B4: L-LDH1 (Sporolactobacillus inulinus CASD) (protein)
chain: MSETVRRVGVVGIGNVGKAAASAVLHENIADELYISDIDSERAKGEAWDFADSIELTPSRTRVLEVPLEGLAVCDVILVAVTERSQIPTQSRLELLKGTAAITYDIVPKLRKAGFKGTYVIATNPCDIITYLFYKLSGLPKNHVIGTGTALDSMRLRRQLSQVIGDVDPRSINAFMIGEHGDSQIAAWSQATVGGQPLDQFEEDNVDEFGPIDRDQVEDAARHFGWEIHTRKGNTQFGIGNALAFFAKSILNDARVVTAASVIQNGEYGQNDLAIGVPIILGRNGVERIIKFRLSEKEQEGFNGSAELIKGYIKQTLEEHEETTAN
notes: as for B2
Km (pH 7.0, 45 °C): 4.1 ± 0.12 mM | Vmax (pH 7.0, 45 °C): 5.2 µmol/min/mg | kcat (pH 7.0, 45 °C): 5.9 ± 0.1 s⁻¹ | kcat/Km (pH 7.0, 45 °C): 1400 ± 100 M⁻¹ s⁻¹

B5: L-LDH2 (Sporolactobacillus inulinus CASD) (protein)
chain: MRKYAIIGLGHVGAAVAFQLVSRGIADELILIDTNEGLARAEQLDLQDMQGRIDTRTIIKINDYSELADTDILFITAGNILAYKEKQAQGNRWAEFEYTKDIVQDIAPKVKASGFHGVAIDTMNPCDAITQYFQENTGLSRQQVFATGTFLDTARMQKVVSDQFDCDPKNVSGYVYGEHGESQFTAWSTVRVNGLDITELAKERNLNLDDLEEAARRGGWEVYKGKGYTSWAISTCAVKLSQAVLSDAHAACICSCYSEKYGTYVGQPAIIGKNGIEEVLTLPLTTEEEAKFKHSADTIKEKFQTFEKQTN
notes: as for B2
Km (pH 7.0, 40 °C): 6.8 ± 0.19 mM | Vmax (pH 7.0, 40 °C): 1.9 µmol/min/mg | kcat (pH 7.0, 40 °C): 2.3 ± 0.1 s⁻¹ | kcat/Km (pH 7.0, 40 °C): 300 ± 100 M⁻¹ s⁻¹
